Reference: PMC9573744, “Structural Insight of KSIII (β-Ketoacyl-ACP Synthase)-like Acyltransferase ChlB3 in the Biosynthesis of Chlorothricin” (Molecules, 2022)

Biological target: the molecule itself
Assay: crystal structure; sitting drop vapor diffusion, 0.1 M HEPS pH 7.0, 1.4 M sodium acetate-trihydrate, 20 °C; space group P212121, four dimers per asymmetric unit; 3.1 Å

B1: ChlB3 (enzyme, Streptomyces antibioticus DSM 40725)
chain: MRTPDIFIKATGRFLPETVSVEWAVEQGHYSAEDAELHELGGAAVAGDTPAPDMALWAAQQAVKRCGHRPEDLGLLLYVDSWHQGPDGWQPQYYLQRHLVGGDVLAVEIQQGCNGMFSALELAAAHLRAGPRPGSALVVAADNFGTPLFDRWTTGPGYIAGDGAGAVVLTTEPGFARLLAVRSLAVPEAEQMHRGAEPLFPPGATIGRPLNFTSRNAAFRELSLTEGLGTGALMRVHQRTLEVVEKTLSEAGITLGDITRVAYMNFSREIVEQRCMAALGLPMSASTWEFGRKLGHLGASDQVVALDELVTTGELGPGDHLLMLGMGPGVTLSCAVVKVLTPAPWSD
notes: ChlB3 acyltransferase of Streptomyces antibioticus DSM 40725, amplified from genomic DNA; chlB3 of 1044 bp cloned into pET28a (NheI/HindIII); also called KSIII (β-ketoacyl-ACP synthase)-like acyltransferase ChlB3; source: E. coli BL21 (DE3), purified (Nickel-NTA, Superdex-200 gel filtration)
stoichiometry N: 2
